Results as given in PMC8573170 (2021).

Tests used:
alpha-thrombin [1] = biological target: T1, alpha-thrombin (Homo sapiens, UniProt P00734); experiment: inhibition of S-2238 hydrolysis, Morrison fit
alpha-thrombin [2] = biological target: T1, alpha-thrombin; experiment: SPR
alpha-thrombin [3] = biological target: T1, alpha-thrombin; experiment: inhibition of S-2238 hydrolysis, Kiapp versus substrate concentration regression

Binder | Ki (alpha-thrombin [1]) | Kd (alpha-thrombin [2]) | Ki (alpha-thrombin [3])
KPVEAEVAQSNLDECEVEAEVAQPKLYQRGEGGNGMEPIPEDVLNEALNA [XC-42 mature peptide] | 18 pM | – | –
KPVEAEVAQPKLYQRGEGGNGMEPIPEDVLNEALNA [XC-43 mature peptide] | 6.1 pM | 3 pM | 7.7 pM
